The results in this text go back to article PMC5436826, “The PET and LIM1-2 domains of testin contribute to intramolecular and homodimeric interactions” (PLoS ONE, 2017).

Data set [1] deals with the molecule itself. Briefly: SEC; untagged FL (1.5 mg or as specified) on calibrated Superdex 200 HR 10/30, buffer A, 0.8 ml/min; dimer and monomer fractions re-run; monomer-dimer equilibrium. In general terms: SEC sorts molecules by how far they enter the pores of the column.
Data set [2] addresses T1, GST-FL (glutathione-S-transferase fused full length testin) (Homo sapiens (Human), UniProt Q9UGI8-1).
T1 chain: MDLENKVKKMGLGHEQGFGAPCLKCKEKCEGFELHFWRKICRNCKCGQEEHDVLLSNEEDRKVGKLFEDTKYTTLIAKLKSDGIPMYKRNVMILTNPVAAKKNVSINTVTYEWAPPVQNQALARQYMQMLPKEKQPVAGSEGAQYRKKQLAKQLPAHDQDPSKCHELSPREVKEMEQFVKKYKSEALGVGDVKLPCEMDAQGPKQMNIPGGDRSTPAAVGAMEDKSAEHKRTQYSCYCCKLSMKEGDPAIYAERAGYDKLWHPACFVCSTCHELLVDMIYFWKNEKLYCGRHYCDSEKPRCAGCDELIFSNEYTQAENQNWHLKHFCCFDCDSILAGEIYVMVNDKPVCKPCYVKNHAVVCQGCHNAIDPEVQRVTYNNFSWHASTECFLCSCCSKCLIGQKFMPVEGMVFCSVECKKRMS
The experiment in a line: GST pull-down with western blot. In general terms: A western blot detects proteins with antibodies after separation by electrophoresis.

In data set [3] the target is T2, untagged PET^52-233 of testin (amino acids 52-233) (human, UniProt Q9UGI8-1 52-233).
T2 construct: pGEX-2TK; source: E. coli BL21(DE3) pLYSstar, purified on glutathione sepharose as GST fusion, GST removed with thrombin
T2 sequence (looked up): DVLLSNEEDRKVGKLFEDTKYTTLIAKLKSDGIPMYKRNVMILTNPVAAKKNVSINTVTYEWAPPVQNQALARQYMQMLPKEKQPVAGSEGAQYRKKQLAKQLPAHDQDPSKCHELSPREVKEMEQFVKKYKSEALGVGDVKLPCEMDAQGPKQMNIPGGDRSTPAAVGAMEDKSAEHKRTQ
The experiment in a line: supernatans depletion assay; GST-LIM1-3 on glutathione-sepharose beads at 0.31-50 μM incubated with 2.5 μM PET^52-233 in buffer A, 1 hour at 4°C; unbound PET^52-233 quantified on Coomassie gels; fit 'one site saturation + nonspecific'. The conditions noted are these: both partners purified.

B1: untagged recombinant full length (FL) testin (natural protein, human, UniProt Q9UGI8-1 1-421, looked up)
chain: MDLENKVKKMGLGHEQGFGAPCLKCKEKCEGFELHFWRKICRNCKCGQEEHDVLLSNEEDRKVGKLFEDTKYTTLIAKLKSDGIPMYKRNVMILTNPVAAKKNVSINTVTYEWAPPVQNQALARQYMQMLPKEKQPVAGSEGAQYRKKQLAKQLPAHDQDPSKCHELSPREVKEMEQFVKKYKSEALGVGDVKLPCEMDAQGPKQMNIPGGDRSTPAAVGAMEDKSAEHKRTQYSCYCCKLSMKEGDPAIYAERAGYDKLWHPACFVCSTCHELLVDMIYFWKNEKLYCGRHYCDSEKPRCAGCDELIFSNEYTQAENQNWHLKHFCCFDCDSILAGEIYVMVNDKPVCKPCYVKNHAVVCQGCHNAIDPEVQRVTYNNFSWHASTECFLCSCCSKCLIGQKFMPVEGMVFCSVECKKRMS
notes: testin, human, full length protein (residues 1-421), isoform 1 NP_056456.1; From pGEX-2TK; thrombin site between GST and FL; By SEC it is in a monomer-dimer equilibrium; also called non-tagged recombinant FL; source: E. coli BL21(DE3) pLYSstar, purified on glutathione sepharose as GST-FL, GST removed with thrombin
In general, stoichiometry N refers to a count of units in the complex or per binding partner. As to B1, the “stoichiometry N” value in data set [1] was found to be 2.

B2: ena/VASP-like protein (Evl), soluble untagged (protein)
chain: MSEQSICQARASVMVYDDTSKKWVPIKPGQQGFSRINIYHNTASNTFRVVGVKLQDQQVVINYSIVKGLKYNQATPTFHQWRDARQVYGLNFASKEEATTFSNAMLFALNIMNSQEGGPSSQRQVQNGPSPDEMDIQRRQVMEQHQQQRQESLERRTSATGPILPPGHPSSAASAPVSCSGPPPPPPPPVPPPPTGATPPPPPPLPAGGAQGSSHDESSMSGLAAAIAGAKLRRVQRPEDASGGSSPSGTSKSDANRASSGGGGGGLMEEMNKLLAKRRKAASQSDKPAEKKEDESQMEDPSTSPSPGTRAASQPPNSSEAGRKPWERSNSVEKPVSSILSRTPSVAKSPEAKSPLQSQPHSRMKPAGSVNDMALDAFDLDRMKQEILEEVVRELHKVKEEIIDAIRQELSGISTT
Take B2: the binding result in data set [2] is given as “binds”.

B3: GST-LIM1-3 of testin (domain or fragment)
chain: YSCYCCKLSMKEGDPAIYAERAGYDKLWHPACFVCSTCHELLVDMIYFWKNEKLYCGRHYCDSEKPRCAGCDELIFSNEYTQAENQNWHLKHFCCFDCDSILAGEIYVMVNDKPVCKPCYVKNHAVVCQGCHNAIDPEVQRVTYNNFSWHASTECFLCSCCSKCLIGQKFMPVEGMVFCSVECKKRMS
modifications: zinc-bound LIM domains; exact start is only in Fig 1A, so limits are taken from the UniProt LIM1 start (234, adjacent to PET 52-233) to the C-terminus (421); GST omitted
A word on the Kd: it is the constant that tells how readily two partners part at equilibrium. As to B3, the Kd in data set [3] was determined as 180 nM.
